The numbers were not newly measured in publication PMC6691393, which cites them from elsewhere.

The series deals with Survivin BIR (Homo sapiens) (UniProt O15392).
UniProt O15392, sequence (O15392 15-91): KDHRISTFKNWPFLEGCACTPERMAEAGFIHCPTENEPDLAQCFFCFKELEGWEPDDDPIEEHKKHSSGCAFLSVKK

On to “SMAC/Diablo N-terminal peptide (from UniProt Q9NR28)”, for which the Kd (usually the free concentration of one partner at which half of the binding sites on the other are occupied at equilibrium, for simple one-to-one binding) was 121 µM.
